The values that follow come from article PMC3901395, “Multivalent interactions of the SUMO-interaction motifs in RING finger protein 4 determine the specificity for chains of the SUMO” (Biochemical Journal, 2013).

For the assay, the target named is T1, mono-SUMO2 (UniProt P61956 12-93).
T1 construct: SUMO2-ΔN11 monomer (first 11 residues missing) ending with the C-terminal GG motif and a stop codon; The methods describe the monomers from the pGEX-4T2 plasmids as ΔN11; also called SUMO2-ΔN11 monomer; source: E. coli Rosetta 2(DE3)pLysS, purified (glutathione beads, thrombin cleavage, anion exchange, SEC)
T1 sequence (P61956 12-93): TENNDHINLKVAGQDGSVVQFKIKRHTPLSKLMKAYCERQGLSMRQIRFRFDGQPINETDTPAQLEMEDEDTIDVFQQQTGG
Briefly: ITC; VP-ITC or ITC200; 25°C; ITC buffer (50 mM Tris/HCl, pH 7.5, 150 mM NaCl, 2 mM DTT, 5% glycerol); SUMOs titrated into a solution of the RNF4 construct or peptide (legends of Figures 1B, 2B); 20–30 injections up to 2–3-fold molar excess; values averaged from two to six titrations. The conditions noted are these: both partners purified.

B1: single PIAS1 peptide (peptide)
chain: KVEVIDLTIDSSSDEEEEEP
modifications: exact peptide ends are only in Figure 2A; limits set around the VIDLT core plus C-terminal acidic flank; termini unknown
In the case of B1, binding was characterised by a dissociation constant (Kd) of 16 µM.
